Data: paper PMC8698322, “Autophagy Is Involved in the Viability of Overexpressing Thioredoxin o1 Tobacco BY-2 Cells under Oxidative Conditions” (Antioxidants, 2021)

Molecular target: the molecule itself
Assay: SDS-PAGE (reductant-free sample buffer) and Western blot with anti-His; recombinant HsATG4B treated with 1 mM or 3 mM H2O2 for 5 min at 25 °C in TBSK buffer (50 mM Tris-HCl, 140 mM NaCl, 30 mM KCl, pH 8.0); high-molecular-weight signal on the blot

B1: recombinant human ATG4B, His-tagged (His-HsATG4B) (enzyme, UniProt Q9Y4P1 1-393, looked up)
chain: MDAATLTYDTLRFAEFEDFPETSEPVWILGRKYSIFTEKDEILSDVASRLWFTYRKNFPAIGGTGPTSDTGWGCMLRCGQMIFAQALVCRHLGRDWRWTQRKRQPDSYFSVLNAFIDRKDSYYSIHQIAQMGVGEGKSIGQWYGPNTVAQVLKKLAVFDTWSSLAVHIAMDNTVVMEEIRRLCRTSVPCAGATAFPADSDRHCNGFPAGAEVTNRPSPWRPLVLLIPLRLGLTDINEAYVETLKHCFMMPQSLGVIGGKPNSAHYFIGYVGEELIYLDPHTTQPAVEPTDGCFIPDESFHCQHPPCRMSIAELDPSIAVGFFCKTEDDFNDWCQQVKKLSLLGGALPMFELVELQPSHLACPDVLNLSLDSSDVERLERFFDSEDEDFEILSL
notes: human cysteine protease ATG4B, recombinant, bought; printed size with His tag 47 kDa; No catalogue number is printed; source: bought: Abcam
B1: binds.
